Measurements: patent US20040166183A1, “Methods and means for preventing or treating inflammation or pruritis” (priority 1998, published 2004)

Experiments:
[1] = tested on: peri-stomal and peri-anal irritation caused by feces; details: applied topically; cited from earlier work
[2] = tested on: therapy-resistant atopic dermatitis; details: small study; cited from earlier work
[3] = molecular target: T1, bovine pancreatic α-chymotrypsin (Bos taurus, UniProt P00766); test: Effect of protease inhibitors on purified enzymes: chymotrypsin (azocasein); assay type: biochemical; details: for inhibition of α-chymotrypsin activity: preliminary experiments; for % Inhibition of the proteolytic activity, chymotrypsin: STI, STI-A, -B, -C 0.125% end concentration, enzyme 0.02%, Trasylol undil., PJ: 1 g PJ powder mixed with 2 ml and with 4 ml buffer
T1 construct: purchased Merck, Sigma; host or cells: bovine pancreas
Protocol: (§1) Proteolytic activity was determined in the fecal homogenates in appropriate dilutions (up to 250-fold) in 0.1 M phosphate buffer (pH 7.6). Penicilline (0.1% w/v) was added to prevent bacterial growth. In the more recent inhibition tests no penicillin was used. Samples of 0.1 ml were incubated with 0.1 ml 1% (w/v) azocasein (Sigma) in phosphate buffer at 37° C. during 1 h. The reaction was stopped by addition of 0.2 ml 10% (w/v) trichloroacetic acid (TCA); after 10 min at room temperature unhydrolysed azocasein, bacteria and other particles were removed by centrifugation at 10,000 rpm during 10 min. Then 0.1 ml of the clear supernatant was transferred to 0.1 ml of 1 N NaOH in flatbottom 24 wells microplates. To the blank assays azocasein was added after incubation an addition of TCA. The absorption of the samples was measured at 450 nm and compared with standard curves obtained from solutions of azocasein. Proteolytic activity was expressed as milligrams azocasein hydrolysed during 1 h per gram dry or wet weight of sample. Each diluted sample was tested for other than enzymatic substrate hydrolysis after heating at 80° C. for 10 min. Spontaneous substrate hydrolysis was tested by incubation of the substrate with buffer.
(§2) In most of the experiments the inhibitor was added to feces (diluted 1:25 in buffer), mixed for 5-15 min and added to the substrate; PJ-powder was added to undiluted feces (1:1) and after mixing, diluted (1:25) with buffer. In each experiment controls were assayed (sterilized feces, sterilized inhibitors, buffer solutions).
bovine pancreatic α-chymotrypsin (Merck, Sigma)
(§3) All enzymes were used in a concentration of 0.2% (w/v) in buffer.
(§4) enzyme concentration was 0.02%, inhibitor concentration (end concentration) was 0.125%.

[4] = tested on: proteolytic activity in feces of CD patients; test: Inhibition of proteolytic activity in feces of CD patients (azocasein); assay type: biochemical, human; details: n = 4, inhibitor added to feces 1:2000 diluted, 20 h incubated with substrate
Excerpt: Fecal samples from twenty-seven patients with Crohn's disease (CD) were studied. Twelve patients, aged 27-58 years, had undergone intestinal surgery 3-12 years previously; locations of the resections were terminal ileum, ileum and caecum, and colon. A second group of patients was not operated; the principal sites of inflammation were ileum, ileum and colon, and colon. The diagnosis CD was established with the usual clinical, radiological and histopathological critria. All patients were outpatients.
(§5) Feces was frozen and stored at −20° C. within 3 h of passage. […] Samples of 1 g were transferred to 24 vol of 0.1 M phosphate buffer pH 7.6 and homogenized (‘Stomacher’, Lab blender 400). Coarse particles were removed from the homogenates by gauze filtration (Utermohlen, refolded to 2 layers); these samples are further referred to as ‘fecal homogenates’.
Proteolytic activity was determined in the fecal homogenates in appropriate dilutions (up to 250-fold) in 0.1 M phosphate buffer (pH 7.6). Penicilline (0.1% w/v) was added to prevent bacterial growth. In the more recent inhibition tests no penicillin was used. […] The absorption of the samples was measured at 450 nm and compared with standard curves obtained from solutions of azocasein. Proteolytic activity was expressed as milligrams azocasein hydrolysed during 1 h per gram dry or wet weight of sample. […]

[5] = tested on: proteolytic activity in feces of ileostomy dog / pouch dog; test: Inhibition of proteolytic activity in feces of ileostomy and pouch dogs (azocasein); assay type: biochemical
Protocol: Fecal samples from 20 colectomized dogs, purebred Beagles (Harlan) were collected. Three ileostomy groups were studied. In ten dogs a standard Brooke ileostomy was constructed by subtotal colectomy. In five dogs a valveless ileal reservoir (pouch) was fashioned by a side-to-side iso-antiperistaltic anastomosis. After a recovery period of 2 weeks a schedule of increasing periods of occlusion was started, except for 5 dogs. The maximum tolerable occlusion time was 2.5-3 h for the ileostomy group and 4-7 h for the reservoir group. In five dogs a continent ileostomy (Kock's pouch) was constructed, which was emptied 2-5 times per 24 hours by catheterization.
as §5
as §1, with “Samples of 0.1 ml were incubated with 0.1 ml 1% (w/v) azocasein (Sigma) in phosphate buffer at 37° C. during 1 h.” left out
as §2

[6] = molecular target: T2, bovine pancreatic trypsin (Bos taurus, UniProt P00760); test: Effect of protease inhibitors on purified enzymes: trypsin (azocasein); assay type: biochemical; details: for inhibition of trypsin activity: preliminary experiments; for % Inhibition of the proteolytic activity, trypsin: STI, STI-A, -B, -C 0.125% end concentration, enzyme 0.02%, Trasylol undil., PJ: 1 g PJ powder mixed with 2 ml and with 4 ml buffer
T2 construct: purchased Serva; host or cells: bovine pancreas
T2 sequence (P00760 24-246): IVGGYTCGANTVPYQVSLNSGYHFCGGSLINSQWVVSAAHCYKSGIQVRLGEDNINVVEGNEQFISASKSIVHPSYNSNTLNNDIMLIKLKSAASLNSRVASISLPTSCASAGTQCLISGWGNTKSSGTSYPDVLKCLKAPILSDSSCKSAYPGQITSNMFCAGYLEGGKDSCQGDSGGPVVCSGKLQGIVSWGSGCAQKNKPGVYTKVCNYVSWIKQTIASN
Protocol: as §1, §2
bovine pancreatic trypsin (Serva)
as §3, §4

[7] = tested on: bovine pancreatic elastase; test: Effect of protease inhibitors on purified enzymes: elastase (azocasein); assay type: biochemical; details: STI, STI-A, -B, -C 0.125% end concentration, enzyme 0.02%; Trasylol undil.; PJ: 1 g PJ powder mixed with 2 ml and with 4 ml buffer
Protocol: as §1, with “buffer. […]” for “buffer.”

[8] = molecular target: T3, lesional elastase activity in psoriasis, contact dermatitis and atopic dermatitis (Homo sapiens, UniProt P08246); details: in vitro; Wiedow et al, Dermatol 1992; cited from earlier work
T3 sequence (P08246 30-267): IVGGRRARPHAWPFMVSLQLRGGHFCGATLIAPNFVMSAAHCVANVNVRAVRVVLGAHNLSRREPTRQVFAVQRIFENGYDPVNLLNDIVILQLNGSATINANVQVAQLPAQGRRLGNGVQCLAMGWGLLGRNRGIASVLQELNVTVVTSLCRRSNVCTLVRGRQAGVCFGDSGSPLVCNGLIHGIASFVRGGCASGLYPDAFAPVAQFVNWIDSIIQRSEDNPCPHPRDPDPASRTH

[9] = tested on: supernatant from feces of a patient with an ileum reservoir with a high proteolytic activity, on skin; test: Skin test on the fore-arm with fecal supernatant and STI; assay type: in vivo, human; details: 7 h incubation on fore-arm
Protocol: Skin tests were performed on the ventral part of the fore-arm. The following solutions were tested: 1. supernatant from feces of a patient with an ileum reservoir with a high proteolytic activity; 2. the same supernatant, but sterilised; 3. supernatant with 0.25% STI (w/v) and 4. 0.25% STI in buffer. Two hundred μl of each solution were placed on folded cambric on the skin and covered with plastic and adhesion wound pad. Total incubation time was 7 h, but after 3 and 5 h 100 μl buffer was added to each of the test patches to prevent dehydration.
After removing the pads and the cambric the skin was carefully cleaned with tap water and judged immediately and after 1-18 h.

papaine = molecular target: T4, papaine (Carica papaya, UniProt P00784); test: Effect of protease inhibitors on purified enzymes: papain (azocasein); assay type: biochemical; details: STI-A, -B, -C 0.125% end concentration, enzyme 0.02%; PJ: 1 g PJ powder mixed with 2 ml and with 4 ml buffer
T4 construct: purchased Sigma
T4 sequence (P00784 134-345): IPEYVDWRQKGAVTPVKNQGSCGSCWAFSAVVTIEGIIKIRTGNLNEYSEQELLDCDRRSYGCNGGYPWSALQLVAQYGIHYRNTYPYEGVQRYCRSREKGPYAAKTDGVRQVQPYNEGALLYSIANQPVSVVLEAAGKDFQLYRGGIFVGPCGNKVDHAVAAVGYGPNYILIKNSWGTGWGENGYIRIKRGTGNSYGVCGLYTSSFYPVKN
Protocol: as §1, with “buffer. […]” for “buffer.”

pronase = test: Effect of protease inhibitors on purified enzymes: pronase (azocasein); assay type: biochemical; details: STI-A, -B, -C 0.125% end concentration, enzyme 0.02%; PJ: 1 g PJ powder mixed with 2 ml and with 4 ml buffer
Protocol: as §1, with “buffer. […]” for “buffer.”

[10] = Ileostomy dog, n = 1*, inhibitor added to feces 1:2000 diluted, 20 h incubated with substrate, STI 1%
[11] = dog, n = 3°, inhibitor added to feces diluted 1:100, 2 h incubated, STI 1%

sucralfate
peri-stomal and peri-anal irritation caused by feces [1]: reduce

alpha1-proteinase inhibitor: protease inhibitor cited from the literature
effect on therapy-resistant atopic dermatitis [2]: wound healing effect

B1: ovomucoid: protease inhibitor, 1% (w/v) in 0.1 M phosphate buffer pH 7.6 (protein, UniProt P01005 25-210, looked up)
Ovomucoid: AEVDCSRFPNATDKEGKDVLVCNKDLRPICGTDGVTYTNDCLLCAYSIEFGTNISKEHDGECKETVPMNCSSYANTTSEDGKVMVLCNRAFNPVCGTDGVTYDNECLLCAHKVEQGASVDKRHDGGCRKELAAVSVDCSEYPKPDCTAEDRPLCGSDNKTYGNKCNFCNAVVESNGTLTLSHFGKC
inhibition of α-chymotrypsin activity [3]: larger part | % inhibition of the proteolytic activity [4]: 68% | % inhibition of the proteolytic activity [5, 10]: 93% | % inhibition of the proteolytic activity ([5]; dog, n = 1†, undiluted feces + inhibitor (3 + 1), mixing for 2 h, then diluted 1:100): 52% | % inhibition of the proteolytic activity [5, 11]: 84% | inhibition of trypsin activity [6]: larger part

B2: STI: Trypsin inhibitor II-from Soybean (T-9003; Sigma) (protein, UniProt P01070 25-205, looked up)
Trypsin inhibitor A: DFVLDNEGNPLENGGTYYILSDITAFGGIRAAPTGNERCPLTVVQSRNELDKGIGTIISSPYRIRFIAEGHPLSLKFDSFAVIMLCVGIPTEWSVVEDLPEGPAVKIGENKDAMDGWFRLERVSDDEFNNYKLVFCPQQAEDDKCGDIGISIDHDDGTRRLVVSKNKPLVVQFQKLDKESL
% Inhibition of the proteolytic activity, chymotrypsin [3]: 99% | % inhibition of the proteolytic activity [5, 10]: 93% | % inhibition of the proteolytic activity ([5]; STI 0.25%, dog, n = 3°, feces diluted 1:100, 2 h incubated): 63% | % inhibition of the proteolytic activity ([5]; STI 0.5%, dog, n = 3°, feces diluted 1:100, 2 h incubated): 61% | % inhibition of the proteolytic activity ([5]; STI 0.75%, dog, n = 3°, feces diluted 1:100, 2 h incubated): 45% | inhibition of the proteolytic activity ([5]; STI in a concentration of 1% (w/v)): > 80% | % inhibition of the proteolytic activity [5, 11]: 84% | % Inhibition of the proteolytic activity, elastase [7]: 15% | effect on lesional elastase activity [8]: inhibitotory effect | skin reaction ([9]; location 3: fecal supernatant with 0.25% STI (w/v), supernatant alone: moderate redness, papulas, some vesiculas): slight redness that disappeared within 60 min | skin reaction ([9]; location 4: 0.25% STI in buffer): No reaction | % Inhibition of the proteolytic activity, trypsin [6]: 99%

B3: STI-A: STI-type I-S Sigma T 9003 (protein, UniProt P01070 25-205, looked up)
Trypsin inhibitor A: DFVLDNEGNPLENGGTYYILSDITAFGGIRAAPTGNERCPLTVVQSRNELDKGIGTIISSPYRIRFIAEGHPLSLKFDSFAVIMLCVGIPTEWSVVEDLPEGPAVKIGENKDAMDGWFRLERVSDDEFNNYKLVFCPQQAEDDKCGDIGISIDHDDGTRRLVVSKNKPLVVQFQKLDKESL
% Inhibition of the proteolytic activity, papain (papaine): 0% | % Inhibition of the proteolytic activity, chymotrypsin [3]: 80% | inhibition of α-chymotrypsin activity [3]: larger part | % Inhibition of the proteolytic activity, elastase [7]: 50% | % Inhibition of the proteolytic activity, pronase (pronase): 0% | % Inhibition of the proteolytic activity, trypsin [6]: 100% | inhibition of trypsin activity [6]: larger part
